Reference: patent publication US10829757B2, “MUB motif is an inhibitor of E2-ubiquitin thioester formation” (Saint Louis University, priority 2016, dated 2020)
No end group written: not given here.

Legend:
AtUBC10 = biological target: T1, AtUBC10 (Arabidopsis thaliana, UniProt P35133); experiment: E2~Ub thioester formation assay, AtUBC10; type: biochemical; conditions: group VI E2, AtMUB3 30 μM
T1 construct: 6xHis (N); made in house; host or cells: E. coli Rosetta 2 (DE3) pLacI
Description: (§1) E2˜Ub thioester formation assays were performed at 25° C. using 0.25 μM E1, 3 μM E2, 12 μM Ub, and 50 mM HEPES, pH 8.0, initiated with addition of 1 mM Mg-ATP. When included, 30 μM AtMUB3 was pre-incubated for 15 min at 25° C. Reactions were terminated by the addition of non-reducing or reducing Laemmli buffer. Protein samples were visualized and analyzed as described, above, and quantified using Fuji Film Multi-Gauge software. Relative inhibition efficiency (RIE) was determined by comparing the inhibition efficiency of AtMUB3 mutants to wild type as follows; RIE=[1−(E2˜Ub with AtMUB3 mutant/E2)]/[1−(E2˜Ub with WT AtMUB3/E2)].
(§2) To assess whether MUB binding regulates E2 function, E2˜Ub thioester formation assays were performed on AtUBC8. […] AtUBC8-Ub peptide linkages, which could complicate the analysis, were observed by 10 minutes, so three minute reactions were used in subsequent assays. Ser22 on the so-called backside binding site (BBS) of AtUBC8 is distant from the active site Cys85, and was previously determined to interfere with MUB-induced E2 localization to the PM (Dowil et al., 2011). E2Ub formation on AtUBC8 Ser22Arg was unaffected by AtMUB3, supporting the requirement of a direct interaction for inhibition (FIG. 1C). Since MUBs interact specifically with Arabidopsis group VI E2s, two additional subfamily members, AtUBC10 and AtUBC28 were tested. […]

AtUBC8 [1] = biological target: T2, AtUBC8 (Arabidopsis thaliana, UniProt P35131); experiment: E2~Ub thioester formation assay (immunoblot), AtUBC8; type: biochemical; conditions: for inhibition of AtUBC8~Ub thioester formation: MUB protein 30 μM pre-incubated 15 min, 3 μM E2, immunoblot
T2 construct: 6xHis; made in house; host or cells: E. coli Rosetta 2 (DE3) pLacI
Description: E2 Thioester Formation Assays.
as §1
Lap-Bar Peptide Inhibition Assay.
Lap-Bar custom peptide ([…] SEQ ID NO: 1, Sigma-Aldrich and Peptide 2.0 Inc.), three scrambled peptides ([…] SEQ ID NO: 4, […] SEQ ID NO: 49, […] SEQ ID NO: 50, Peptide 2.0 Inc.) and amino acid controls were dissolved in 50 mM Tris-HCl, pH 7.5, 300 mM NaCl, and 10% Glycerol.

AtUBC4 = biological target: T3, AtUBC4 (Arabidopsis thaliana, UniProt P42748); experiment: E2~Ub thioester formation assay, AtUBC4; type: biochemical; conditions: group IV E2, AtMUB3 30 μM
T3 construct: 6xHis (N); made in house; host or cells: E. coli Rosetta 2 (DE3) pLacI
T3 sequence (P42748 1-187): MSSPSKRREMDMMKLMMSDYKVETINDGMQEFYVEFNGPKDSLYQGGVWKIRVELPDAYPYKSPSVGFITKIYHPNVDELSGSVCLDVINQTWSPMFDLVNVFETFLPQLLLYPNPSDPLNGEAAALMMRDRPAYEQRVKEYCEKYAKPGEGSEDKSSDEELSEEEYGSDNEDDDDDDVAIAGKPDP
Description: as §1, §2

AtUBC8 [2] = biological target: T2, AtUBC8; experiment: Isothermal titration calorimetry; type: binding; conditions: ITC, 8 μM AtUBC8, 110 μM AtMUB3 titrant, 25 mM HEPES pH 7.5, 200 mM NaCl
Description: FIG. 13. AtMUB binds AtUBC8 with submicromolar dissociation constant Kd as measured by isothermal titration calorimetry. Isothermal titration calorimetry (ITC) was performed on 8 μM AtUBC8 with 110 μM AtMUB3 as the titrant using a MicroCal iTC200 (GE). Proteins were purified as described for crystallization and dialyzed extensively against a buffer containing 25 mM HEPES, pH 7.5, 200 mM NaCl, 1 mM TCEP. Data was processed with MicroCal Origin 7 software, and normalized against the dialysis buffer's heat of dilution. This plot is representative of 3 independent experiments, which yielded similar results but were performed at different concentrations of NaCl.

AtUBC36 = biological target: T4, AtUBC36 (Arabidopsis thaliana, UniProt Q9FZ48); experiment: E2~Ub thioester formation assay, AtUBC36; type: biochemical; conditions: group XV E2, AtMUB3 30 μM
T4 construct: 6xHis (N); made in house; host or cells: E. coli Rosetta 2 (DE3) pLacI
T4 sequence (Q9FZ48 1-153): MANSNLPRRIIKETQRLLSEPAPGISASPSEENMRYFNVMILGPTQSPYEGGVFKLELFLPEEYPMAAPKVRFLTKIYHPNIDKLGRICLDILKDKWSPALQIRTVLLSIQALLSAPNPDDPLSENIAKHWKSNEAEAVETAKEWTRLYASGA
Description: as §1, §2

[3] = biological target: T5, AtUBC8C85S with Ub linked to the active site through an oxyester bond (Arabidopsis thaliana, UniProt P35131, C85S); experiment: FLAG pull-down assay with FLAG-AtMUB3; type: binding; conditions: immunoblot
T5 construct: His; made in house; host or cells: E. coli Rosetta 2 (DE3) pLacI
Description: (§3) GST-tagged AtUBC8 was induced as described above, and the soluble extract fraction was immobilized on GSH resin (Thermo Scientific) for 20 min, followed by three washes with sonication buffer. Equi-molar His-tagged AtMUB3, AtMUB3 mutants and Ub were incubated separately with AtUBC8 loaded GSH resin for 15 min, washed three times using sonication buffer, and boiled in Laemmli buffer. MUB recovery was determined by immunoblotting and chemiluminescent detection using Fujifilm LAS4000 imaging. For FLAG pull-down assay, His-tagged AtUBC8C85S—O-Ub was generated (Sakata et al., 2010). Flag-tagged AtMUB3 was immobilized on FLAG resin (Thermo Scientific) for 20 min, followed by three washes with sonication buffer. AtUBC8C85S—O-Ub protein or Ub were incubated separately with AtMUB3 loaded FLAG resin for 15 min, washed three times using sonication buffer, and boiled in Laemmli buffer.

Ube2D3 [4] = biological target: T6, Ube2D3 (Homo sapiens, UniProt P61077); experiment: E2~Ub thioester formation assay, Ube2D3; type: biochemical; conditions: immunoblot
T6 construct: 6xHis (C); made in house; host or cells: E. coli Rosetta 2 (DE3) pLacI
Description: as §1
To test whether the differences between plant and animal LBLs influence their activity, the inventors compared them in reciprocal inhibition experiments. […] Taken together, MUB inhibition of E2Ub formation is conserved and broadly relevant to organisms that use the ubiquitylation system.

AtUBC8~Ub = biological target: T7, AtUBC8~Ub (Arabidopsis thaliana, UniProt P35131); experiment: E2~Ub thioester discharge assay; type: biochemical; conditions: 30 μM MUB, 100 mM lysine
T7 construct: 6xHis; made in house; host or cells: E. coli Rosetta 2 (DE3) pLacI
Description: FIG. 11. […] AtUBC8˜Ub discharging assay is exposed to AtMUB3. The quantification is presented in line graph, top panel (+/−SEM and n=3 for all data points), while the immunoblot (IB) of triple parallel experiments is shown in bottom panel.
AtUBC8 (3 μM) was charged by incubating with 0.25 μM E1, 50 mM HEPES, pH 8.0, 1 mM Mg-ATP and 12 μM K0Ub for 3 min. The E1 was inactivated for 90 seconds with 50×E1 stop buffer (BostonBiochem). Lysine (100 mM) was added to the reaction with or without 30 μM MUB to initiate Ub leaving from the E2 active site.

AtUBC8 [5] = biological target: T2, AtUBC8; experiment: GST pull-down assay with GST-AtUBC8; type: binding; conditions: immunoblot
Description: as §3

AtUBC8 Ser22Arg = biological target: T8, AtUBC8 Ser22Arg (Arabidopsis thaliana, UniProt P35131, S22R); experiment: E2~Ub thioester formation assay, AtUBC8 Ser22Arg; type: biochemical; conditions: AtMUB3 30 μM, three minute reaction
T8 construct: 6xHis (C); made in house; host or cells: E. coli Rosetta 2 (DE3) pLacI
Description: as §1, §2

AtUBC28 = biological target: T9, AtUBC28 (Arabidopsis thaliana, UniProt Q94F47); experiment: E2~Ub thioester formation assay, AtUBC28; type: biochemical; conditions: group VI E2, AtMUB3 30 μM
T9 construct: 6xHis (N); made in house; host or cells: E. coli Rosetta 2 (DE3) pLacI
Description: as §1, §2

Ube2D3 [6] = biological target: T6, Ube2D3; experiment: HTRF-FRET E2 activation assay; type: biochemical
Description: FIG. 12. Ube2D3 Activation. Using HTRF-FRET, Ube2D3 activation was monitored with indicated concentrations of HsMUB to establish an inhibition curve. The initial velocity was linear over the first 10 minutes and is represented as percent E2 activated, with 100% velocity taken in the absence of MUB and 0% in the absence of ATP. Plot represents three independent assays+s.e.m., fit to the one-site binding equation. An additional three assays fit to the Hill equation with coefficient n produced nearly identical results with n1.
HTRF-FRET E2 activation assays were conducted using reagents adapted from the E1/E2 Lite kit (LifeSensors, Malvern, Pa.). […] Assays were read kinetically using a BioTek Synergy 4 plate reader equipped with Excitation 340/30 nm, Emission1 495/10 nm, Emission2 520/25 nm bandpass filters, a 400 nm dichroic mirror, and a Xenon flash lamp set to read Terbium and Fluorescein emission with a 100 μs time delay and 200 μs data collection time. The corrected FRET ratio was calculated as described in the TR-FRET manual (Molecular Devices): [(Em520/Em490)−(P*Em490))/Em490]*10000, where P=Em520/Em490 with terbium only, a proportionality factor to correct for terbium donor contribution to acceptor emission. The linear slope of the first 10 minutes of the reaction was determined as the initial velocity. […]

T6 sequence (P61077 whole entry): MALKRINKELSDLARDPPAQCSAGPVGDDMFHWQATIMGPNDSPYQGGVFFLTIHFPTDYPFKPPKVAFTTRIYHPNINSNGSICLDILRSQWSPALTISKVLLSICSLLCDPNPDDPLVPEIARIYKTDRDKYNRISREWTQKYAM
T2 sequence (P35131 whole entry): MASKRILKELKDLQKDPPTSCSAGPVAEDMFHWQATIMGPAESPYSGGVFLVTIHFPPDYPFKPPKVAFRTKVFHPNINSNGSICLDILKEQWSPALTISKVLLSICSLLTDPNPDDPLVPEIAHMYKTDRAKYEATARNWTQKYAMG
T7 sequence (P35131 whole entry): as above
T1 sequence (P35133 whole entry): as the sequence (P35131 whole entry) above, with A41S, S46A, R131K, A132N, A136S, N140S counted along it
T5 sequence (P35131 whole entry C85S): as the sequence (P35131 whole entry) above, with C85S counted along it
T8 sequence (P35131 whole entry S22R): as the sequence (P35131 whole entry) above, with S22R counted along it
T9 sequence (Q94F47 whole entry): as the sequence (P35131 whole entry) above, with A41S, E42D, I78V, A136S, N140S counted along it

Molecule: AtMUB3: Arabidopsis thaliana Membrane-anchored Ubiquitin-fold protein 3, recombinant, His-tagged (VGQCKTPFGDIAGGVIVMHVV; also: His tag; listed as Arabidopsis thaliana)
- inhibition of AtUBC10 activation (AtUBC10): strongly inhibited
- inhibition of AtUBC8~Ub thioester formation (AtUBC8 [1]): strongly reduced
- inhibition of AtUBC4 activation (AtUBC4): unaffected
- dissociation constant Kd (AtUBC8 [2]): submicromolar
- inhibition of AtUBC36 activation (AtUBC36): unaffected
- pull-down of AtUBC8C85S-O-Ub [3]: can pull-down
- inhibition of Ube2D3~Ub formation (Ube2D3 [4]): does not inhibit
- Ub discharge from AtUBC8~Ub (AtUBC8~Ub): increase Ub discharging
- Ub discharge from AtUBC8~Ub (AtUBC8~Ub; listed as MUB): slightly faster
- binding to GST-AtUBC8 in pull-down (AtUBC8 [5]): efficient bait
- inhibition of E2~Ub formation on AtUBC8 Ser22Arg (AtUBC8 Ser22Arg): unaffected
- inhibition of AtUBC28 activation (AtUBC28): strongly inhibited

Molecule: LKLPFGKT [minimal human LBL, human MUB Lap Bar Loop eight-residue peptide]
- inhibition of AtUBC8~Ub formation by peptides (AtUBC8 [1]; peptide 5 mM, 3 μM AtUBC8): potent inhibitory activity

B1: AtMUB3 F77A (protein, UniProt Q9SW27 1-115, looked up, variant F77A)
Membrane-anchored …: MPEEESIDIKFRLYDGSDIGPFRYSAASTVDFLKQRVVSDWPKGKTVVPKGINEVKLISSGKILENNKTVGQCKTPAGDIAGGVIVMHVVVQPSLAKSKTEKKVDKAPKAVICTC
- inhibition of AtUBC8~Ub thioester formation (AtUBC8 [1]): strong loss of inhibition

B2: HsMUB: human version of MUB, aka Ubl3, SEQ ID NO: 2 (protein, listed as Homo sapiens)
chain: MSSNVPADMINLRLILVSGKTKEFLFSPNDSASDIAKHVYDNWPMDWEEEQVSSPNILRLIYQGRFLHGNVTLGALKLPFGKTTVMHLVARETLPEPNSQGQRNREKTGESNCCVIL
- inhibition of AtUBC8~Ub thioester formation (AtUBC8 [1]): potent inhibition
- maximal inhibition of Ube2D3 activation (Ube2D3 [6]): up to 70%
- inhibition of Ube2D3~Ub formation (Ube2D3 [4]): potent inhibition
